From publication PMC10646970 come the findings set out here.

The target in the test is PD-L1 (programmed cell death ligand 1), N-terminal domain.

As for “wild-type (natural) PD-1 (from UniProt Q15116 25-170) (natural protein)”, the increase in IFN-gamma production in MDA-MB-231/PBMC coculture, 10 ug/mL protein, 48 h, ELISA; PD-L1 is that on the tumour cells; pair blocked: PD-1 on PBMCs / PD-L1 worked out at 92%.
